In patent US20090068110A1, “ANTIBODIES TO INSULIN-LIKE GROWTH FACTOR RECEPTOR” (Genentech, Inc., priority 2006, published 2009):

How the values were obtained:
[1] = biological target: T1, IGF-1R α- and β-subunit in SK-N-AS cells (Homo sapiens, UniProt P08069); assay: h10H5-induced IGF-1R down-regulation with proteasome or lysosomal protease inhibitors; format: cell-based; details: one hour pretreatment; 30 μM bortezomib or 5 μM pepstatin A and 10 μg/ml leupeptin
T1 construct: h10H5-induced IGF-1R downregulation, SK-N-AS cells were pretreated; endogenous in cells; host or cells: SK-N-AS
Description: Both proteasome and lysosome pathways have been implicated in ligand-mediated IGF-1R degradation. To examine whether these pathways contribute to h10H5-induced IGF-1R downregulation, SK-N-AS cells were pretreated with either a combination of 5 μM of pepstatin A and 10 μg/ml of leupeptin or 30 μM of VELCADE® bortezomib for one hour, and subsequently exposed to h10H5 treatment for 1 to 8 hours in the presence of protease or protesome inhibitors. Cell lysates were analyzed for IGF-1R α-subunit and β-subunit by Western blotting. β-actin was used as a loading control. Because the extracellular (ECD) and intracellular (ICD) domains are exposed to different cellular environments during the internalization and trafficking processes, antibodies that specifically react to the α-subunit that is a major part of ECD or the C-terminus of the β-subunit, and therefore a part of ICD, were used for Western blot analysis.

SW527 xenograft tumors = assay: SW527 breast-cancer xenograft model; format: in vivo, SCID beige mice
Excerpt: (§1) Female nude (nu/nu) and C.B-17 SCID beige mice were obtained from Charles Rivers Laboratories, Inc. (Hollister, Calif.). Animals were about six to eight weeks old and weighed about 25 grams each. Mice were acclimated to study conditions for at least three days before tumor-cell inoculations. The animals were housed in standard rodent micro-isolator cages. Only animals that appeared to be healthy and that were free of obvious abnormalities were used for the study. Each mouse was given a subcutaneous injection of SK-N-AS cells (10 million), SW527 cells (5 million), Colo205 cells (5 million), or A549 cells (5 million) into the dorsal right flank in a volume of 0.2 mL. Data collected from each experimental group were expressed as mean tumor volume±the standard error of the mean (SEM). Tumors were monitored until they reached a mean volume of 130-260 mm3. […] Tumors were measured twice weekly throughout the experiment starting on the first day of treatment. Tumor volumes were measured in two dimensions (length and width) using ULTRA CAL-IV™ calipers (Model 54-10-111, Fred V. Fowler Company, Inc.; Newton, Mass.), and calculated using the formula of: […]
(§2) Tumor-inhibition and body-weight graphs were plotted using […]™ 3.6 software (Synergy Software; Reading, Pa.). […]
Tumor incidence was determined by the number of measurable tumors in each group. […]

A549 tumors = assay: A549 lung-cancer xenograft model; format: in vivo, athymic nude mice; details: h10H5.vX 5 mg/kg IP two times per week; vinorelbine 9 mg/kg weekly for first three weeks
Excerpt: as §1, §2

[2] = test system: Colo205-e215 xenograft tumors; assay: Colo205-e215 xenograft, combination with 5-FU; format: in vivo, athymic nude mice; details: h10H5.vX weekly IP; 5-FU 100 mg/kg weekly for first three weeks
Excerpt: as §1, §2

[3] = biological target: human IGF-1R-ECD (secreted recombinant extracellular domain, amino acids 1-902, tagged with 10 or 12 histidine residues at the carboxyl terminus) (human) (UniProt P08069); assay: solid-phase binding assay: serially diluted antibody on plate-coated human IGF-1R-ECD, then biotinylated IGF-I (blocked ligand), streptavidin-HRP, A450; n=3
[4] = biological target: human IGF-1R-ECD (secreted recombinant extracellular domain, amino acids 1-902, tagged with 10 or 12 histidine residues at the carboxyl terminus) (human) (UniProt P08069); assay: solid-phase binding assay: serially diluted antibody on plate-coated human IGF-1R-ECD, then biotinylated IGF-II (blocked ligand), streptavidin-HRP, A450; n=3
[5] = biological target: human IGF-1R-ECD (secreted recombinant extracellular domain, amino acids 1-902, tagged with 10 or 12 histidine residues at the carboxyl terminus) (human) (UniProt P08069); assay: competition ELISA: antibody pre-incubated on plate-coated human IGF-1R-ECD, then biotinylated IGF-I (blocked ligand), streptavidin-HRP, A450
[6] = CHF patients, enalapril in addition to conventional therapy; cited from earlier work
[7] = biological target: murine IGF-1R-ECD (murine) (UniProt Q60751); assay: BIACORE surface plasmon resonance: IGF-1R immobilized on CM5 chip (about 500 RU), Fab injected 500-3.1 nM, 25 C, 1:1 Langmuir model
[8] = biological target: human IGF-1R-ECD (secreted recombinant extracellular domain, amino acids 1-902, tagged with 10 or 12 histidine residues at the carboxyl terminus) (human) (UniProt P08069); assay: as above
[9] = biological target: human IGF-1R-ECD (secreted recombinant extracellular domain, amino acids 1-902, tagged with 10 or 12 histidine residues at the carboxyl terminus) (human) (UniProt P08069); assay: BIACORE surface plasmon resonance: IGF-1R immobilized on CM5 chip (about 500 RU), IgG injected 250-0.78 nM, 25 C, 1:1 Langmuir model (apparent affinity)
cynomolgus-monkey IGF-1R = cynomolgus-monkey IGF-1R (cynomolgus monkey, UniProt G7P9I7 31-908); assay: as above
Sequence of cynomolgus-monkey IGF-1R (G7P9I7 entry or part of it): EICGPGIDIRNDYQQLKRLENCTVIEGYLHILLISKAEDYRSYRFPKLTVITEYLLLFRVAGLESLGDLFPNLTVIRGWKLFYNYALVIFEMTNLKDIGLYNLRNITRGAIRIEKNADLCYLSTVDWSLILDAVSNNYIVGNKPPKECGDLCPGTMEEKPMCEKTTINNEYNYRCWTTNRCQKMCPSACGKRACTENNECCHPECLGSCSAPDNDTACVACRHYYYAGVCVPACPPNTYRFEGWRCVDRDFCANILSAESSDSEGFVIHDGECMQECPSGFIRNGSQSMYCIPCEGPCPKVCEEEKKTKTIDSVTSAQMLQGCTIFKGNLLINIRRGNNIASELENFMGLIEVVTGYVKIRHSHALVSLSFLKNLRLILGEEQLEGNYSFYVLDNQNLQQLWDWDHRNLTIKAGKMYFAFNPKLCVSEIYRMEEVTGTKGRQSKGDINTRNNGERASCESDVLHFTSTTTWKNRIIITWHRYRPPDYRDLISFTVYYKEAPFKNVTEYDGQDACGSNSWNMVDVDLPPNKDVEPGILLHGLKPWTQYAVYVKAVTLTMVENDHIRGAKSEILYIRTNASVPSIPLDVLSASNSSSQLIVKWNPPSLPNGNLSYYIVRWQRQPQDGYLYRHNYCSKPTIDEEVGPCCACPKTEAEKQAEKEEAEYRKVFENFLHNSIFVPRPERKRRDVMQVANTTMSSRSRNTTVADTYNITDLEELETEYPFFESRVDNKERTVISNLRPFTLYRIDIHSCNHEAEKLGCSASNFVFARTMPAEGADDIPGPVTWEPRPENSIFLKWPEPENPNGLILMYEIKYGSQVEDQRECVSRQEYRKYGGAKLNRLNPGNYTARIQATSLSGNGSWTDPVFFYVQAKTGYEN

CC(C)C[C@H](NC(=O)[C@H](Cc1ccccc1)NC(=O)c1cnccn1)B(O)O [VELCADE® bortezomib, bortezomib]
effect on h10H5-induced IGF-1R subunit downregulation [1]: more effective in preventing β-subunit downregulation

CC(=O)O[C@@]12CO[C@@H]1C[C@H](O)[C@@]1(C)C(=O)[C@H](O)C3=C(C)[C@@H](OC(=O)[C@H](O)[C@@H](NC(=O)OC(C)(C)C)c4ccccc4)C[C@@](O)([C@@H](OC(=O)c4ccccc4)[C@H]21)C3(C)C [docetaxel]
TGI on Day 14 (SW527 xenograft tumors; Example 5, h10H5 5 mg/kg weekly IP, docetaxel 12.5 mg/kg IV Days 0, 4, 8, B20-4.1 10 mg/kg weekly IP): 54%
body weight losses leading to euthanasia (SW527 xenograft tumors; single-agent docetaxel 12.5 mg/kg, two mice Day 8, two mice Day 12): > 20%

CCC1=C[C@@H]2CN(C1)Cc1c([nH]c3ccccc13)[C@@](C(=O)OC)(c1cc3c(cc1OC)N(C)[C@H]1[C@@](O)(C(=O)OC)[C@H](OC(C)=O)[C@]4(CC)C=CCN5CC[C@]31[C@@H]54)C2 [vinorelbine]
inhibition of tumor growth (TGI) at day 21 (A549 tumors): 45%

O=c1[nH]cc(F)c(=O)[nH]1 [5-FU, 5-fluorouracil]
% TGI at day 27 [2]: 53%

IR3, commercial anti-IGF-1R antibody
IC50 (read off the curve) [3]: 8 µg/mL
IC50 (read off the curve) [4]: 5 µg/mL
IC50 (read off the curve) [5]: 5 nM

CCOC(=O)[C@H](CCc1ccccc1)N[C@@H](C)C(=O)N1CCC[C@H]1C(=O)O [enalapril]
reduction of the risk of developing cardiac cachexia [6]: 19%

B1: YW95.6 (Fab, V domains shown)
VH: EVQLVESGGGLVQPGGSLRLSCAASGFTFSSYAMSWVRQAPGKGLEWVSRISPSGGSTYYADSVKGRFTISADTSKNTAYLQMNSLRAEDTAVYYCAREEYYYWGAMDVWGQGTLVTVSS
VL: DIQMTQSPSSLSASVGDRVTITCRASQSISSYLAWYQQKPGKAPKLLIYGASSRASGVPSRFSGSGSGTDFTLTISSLQPEDFATYYCQQYYSSPLTFGQGTKVEIK
Kd [7]: 8.6 nM
Kd [8]: 7.3 nM

B2: chimeric 10H5-IgG (antibody, V domains shown)
VH: QVQLQQPGAELVKPGASVTLSCKASGYTFTRFWIHWVKQRPGQGLEWIGEINPSNGRTNYNENFKNKATLTVDTSSSTAYMQLSSLTSEVSVVYYCARGGRLDQWGQGTT
VL: DIVMTQSQKFMSTSLGDRVSVTCKASQNVGSNVAWYQQKPGQSPEALIYSASYRYSGVPDRFTGSGSGTDFTLTISNVQSEDLAEYFCHQYNNYPYTFGGGTKVEIKR
notes: also called human chimeric 10H5
Kd [9]: 0.1 nM
Kd (cynomolgus-monkey IGF-1R): 0.13 nM
